Source: US10465005B2, “JAML specific binding agents, antibodies, and uses related thereto” (Emory University, priority 2011, dated 2019)
“Also recorded” adds a separate entry of the source.

Tests used:
T84 monolayers = test: Epithelial barrier recovery after calcium switch (TER, dextran flux); assay type: cell-based, human; conditions: 30 μg/ml, 20 m/ml, up to 24 hours, FIG. 9A
Description: T84 monolayers grown on permeable supports were subjected to transient calcium depletion by preincubation in Ca2+ free buffer (PBS) for 40 min to disassemble tight junctions, followed by switching back to calcium containing medium without (No Tx), or with sJAML or a control recombinant IgSF protein sSIRPa (30 μg/ml). Barrier recovery was measured as transepithelial resistance (TER) at time points as indicated.
FIG. 9B. Flux of fluorescently labeled dextran (3 k) was measured at the 24 h time point for conditions as described in panel A. N=4.
Since CAR plays a role in epithelial barrier, the effect of soluble JAML on epithelial barrier recovery was tested. Transepithelial resistance (TER) recovery experiments and dextran flux assay were performed with T84 cells grown in transwells (FIG. 9) as well as with Caco2 cells. […] As a negative control, a related soluble IgSF molecule SIRPalpha had no effect.

PMN = test: Surface JAML on PMN after activation (flow cytometry); assay type: cell-based, human
Description: Freshly isolated PMN, not treated (No Tx), or treated with either fMLF (100 nM) or PMA (200 nM) in suspension for 15 minutes at 37° c. were fixed with 1% paraformaldehyde, stained for JAML (DW100) and CD11b/CD18 (CBRM 1/29) and analyzed for surface expression by flow cytometry.
Since prior to transepithelial migration PMNs exit the blood vessels, whether JAML expression on PMNs would be preserved during migration across endothelial cells (HDMECs) towards a 10 μM fMLF, as described previously was evaluated. Indeed under similar conditions only a small portion of surface JAML was lost, but most of it was still detectable on PMN surface (FIG. 3B).
Thus whether PMN activation alone is sufficient to induce the loss of surface JAML or whether direct contact with the epithelium is required was examined. To test this, the expression of JAML was analyzed on PMNs that were stimulated in suspension with fMLF (100 μM) and PMA (200 nM). PMNs were allowed to adhere to epithelial cells for 1 hour. The loss of JAML could be correlated to the degree of PMN activation. […] This was again confirmed by immunofluorescence (FIG. 4B). PMN adhesion to epithelium in the absence of proinflamatory stimulus (as measured by flow cytometry, gating on Mac-1 positive PMNs) was also sufficient to induce a partial loss of surface JAML (FIG. 4C), in agreement with the small loss of surface JAML observed after migration through endothelial cells (FIG. 3B). […] Next, the observed loss of JAML during PMN activation may be due to its shedding from PMN surface and thus would be detectable in the supernatant of activated cells. To test this hypothesis, two antibodies, DW100 and DW216 that recognize two different epitopes of JAML were used in a sandwich ELISA assay to capture solubilized molecules in the supernatant of activated PMN.

[1] = target: T1, CHO-JAML-His and CHO JAML-6xMyc (Homo sapiens, UniProt Q86YT9); test: FACS staining of stably transfected CHO-JAML cell lines; assay type: binding; conditions: FIG. 1A
T1 construct: 6xMyc (cell line CHO JAML-6xMyc); expressed in transfected cells
T1 sequence (Q86YT9 20-394): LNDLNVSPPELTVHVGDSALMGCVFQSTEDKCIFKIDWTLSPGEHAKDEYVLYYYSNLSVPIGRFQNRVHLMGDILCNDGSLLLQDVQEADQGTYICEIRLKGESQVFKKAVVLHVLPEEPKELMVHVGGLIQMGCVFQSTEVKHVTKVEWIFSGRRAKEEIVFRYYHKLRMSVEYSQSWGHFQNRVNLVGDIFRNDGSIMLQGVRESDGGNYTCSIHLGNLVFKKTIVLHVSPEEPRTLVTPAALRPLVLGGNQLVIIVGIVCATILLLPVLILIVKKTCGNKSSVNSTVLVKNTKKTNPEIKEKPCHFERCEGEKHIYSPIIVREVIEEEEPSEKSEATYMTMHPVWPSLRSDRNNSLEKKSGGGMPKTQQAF
Source text: BALB/c mice were immunized with recombinant soluble fragment of JAML.D1D2 tagged with 10 His residues at the C-terminus (sJAML-His), generated in H293T cells and purified by Nickel chromatography. After the 4th boost, mice were given a final immunization and, 3 days later, spleen cells harvested and fused to the myeloma cell line P3U1. Hybridomas were selected in HAT medium and supernatants of clones were subjected to screening first to immobilized, soluble JAML and followed by staining of CHO-JAML stable transfectants. Three hybridomas were selected and antibodies were purified from ascites. FACS staining profiles of mAbs using two different, stably transfected CHO-JAML cell lines, CHO-JAML-His and CHO JAML-6xMyc, both membrane bound and tagged at the C-terminus with either 10-His or 6xMyc. Control antibody is 9E10 anti Myc.
These hybridomas were further tested for reactivity against tagged, full-length JAML expressed on the surface of cultured cells. CHO-JAML-6XMyc transfectants were aliquoted and pelleted into round bottom 96 well plates. 100 μl hybridoma supernatants were added for 1 hr at 4° C. Cells were washed and positive wells were identified by FACS analysis using Goat anti Mouse-AlexaFluor 488. Cells from positive wells were cloned by limiting dilution at one cell per well and expanded first in DMEM-10% FBS containing HAT then in medium containing HT (ATCC) and later DMEM, 10% FBS. The cloned cells of interest were sent to Harlan Laboratories (Indianapolis, Ind.) for production of ascites. Antibodies were purified from ascitic fluid using proteinA-Sepharose (GE Healthcare) followed by dialysis against PBS. Aliquots were frozen at −80° C. Ig subclass of each antibody was determined by using the IsoStrip Mouse Monoclonal Antibody Isotyping Kit (Roche Applied Science). […]
Cells suspensions of adherent cells were prepared by trypsinization with Trypsin-EDTA (Sigma). […] After final washes, cells were analyzed using FACS Calibur. […] All samples were stained for JAML (DW100 mAb) and CD11b/CD18 (CBRM 1/29), and only CD11b/CD18 positive cells (PMNs) were analyzed for JAML expression.

JAML binding with CAR = target: T2, JAML binding with CAR (Homo sapiens, UniProt Q86YT9); test: CAR binding assay (ELISA, CAR-GST on immobilized sJAML-His); conditions: CAR-GST 10 μg/ml on immobilized sJAML-His preincubated with antibody; FIG. 1C
T2 construct: soluble JAMLD1D2 was truncated and tagged after residue Leucine259; made in house; host or cells: HEK293T (sJAML-His)
T2 sequence (Q86YT9 20-259): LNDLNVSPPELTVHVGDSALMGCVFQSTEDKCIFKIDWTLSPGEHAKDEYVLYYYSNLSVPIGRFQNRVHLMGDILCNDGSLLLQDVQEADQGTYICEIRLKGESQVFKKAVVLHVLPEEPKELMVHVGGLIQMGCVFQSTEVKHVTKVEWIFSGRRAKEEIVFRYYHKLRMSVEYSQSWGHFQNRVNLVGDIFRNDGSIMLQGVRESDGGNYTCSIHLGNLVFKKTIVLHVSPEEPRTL
Description: FIG. 1C. CAR binding assay: sJAML-His was coated in Immulon II microtiter microtiter wells overnight, at 4° C. Microtiter wells were washed and blocked and 100 μl antibody solutions were added to wells for 1 hour RT. After washing, CAR-GST was added at 10 μg/ml for 1 hour RT, washed and the assay was developed with HRP conjugated goat anti GST followed by ABTS and OD measurement at 405 nm.
(§1) Because certain antibodies recognize the membrane distal domain of JAML, their ability to inhibit binding to CAR was tested. By ELISA, the levels of soluble CAR-GST bound to immobilized sJAML-His preincubated with anti JAML antibodies was measured. […] Thus, these antibodies recognize three different epitopes on JAML and that both DW100 and DW55 bind epitopes close to the JAML binding site. Using a cell aggregation assay, the possibility that DW100 could inhibit the binding of JAML to CAR expressed on the surface of cells was examined. […] This again confirms previously described JAML binding to CAR, as well as the specificity of DW100 (blocking) and DW216 (non-blocking) Abs to JAML.

[2] = tested on: T84 epithelial monolayers; test: Scratch wound closure of epithelial monolayers; assay type: cell-based, human; conditions: T84; mAb 30 μg/ml; FIG. 10A,B
Description: T84 epithelial monolayers grown to confluence were wounded by introduction of a single linear scratch wound using a 20-μl plastic pipette tip. Wound closure was monitored over 72 h in the absence or presence of PMN or sJAML. The scale bar is 10 μm.
Whether JAML binding to CAR would affect epithelial wound restitution was investigated. […] If soluble JAML interactions with CAR play a role, the effect could be reversed with the addition of blocking DW100 mAb.
Cell grown in 24-well tissue culture plates received one linear wound using a 20-μl plastic pipette tip attached to low suction. Wounded monolayers were washed once with PBS to remove detached cells and debris, and incubated with the appropriate stimulus added to the medium. The rate of migration was measured by determining the wound area immediately after wounding (t=0) and at the indicated time points. The data are presented as the area of the wound at each time point normalized to t=0. The experiments were carried out in triplicates per condition, and the data shown are representative of 4 independent experiments.

[3] = tested on: CHO-JAML and CHO-CAR cells; test: CHO-JAML / CHO-CAR cell aggregation assay; assay type: cell-based; conditions: antibodies 30 μg/ml; 1 hour at 37° C.; FIG. 1D
Description: FIG. 1D. CHO-K1 cells stably transfected with either JAML (CHO-JAML) or CAR (CHO-CAR) proteins were allowed to aggregate (1 hour at 37° C. on a shaker at 50 RPM) separately (1×10^6 cells/BSA coated 3 ml Petri dish), or as a mix (5×10^5 each cell type/dish), in the absence or presence of anti-JAML monoclonal antibodies DW100, DW55 and DW216 (30 μg/ml). The number of clusters (left) and the area of the clusters (right) were quantified in 7 randomly chosen fields using light microscopy. The results are representative of four independent experiments. CHO-CAR and CHO-JAML in mixed cultures formed large aggregates.
as §1

Molecule: SIRPalpha: control recombinant IgSF protein, related soluble IgSF molecule [reference compound]
- epithelial barrier recovery (TER) after calcium depletion (T84 monolayers): had no effect

Molecule: fMLF
- JAML expression on PMN after fMLF (PMN; 10 μM fMLF): no significant effect on JAML expression
- surface JAML on PMN after fMLF (PMN; 100 μM fMLF, FIG. 4A as described in Example 4): partial but significant loss of JAML
- surface JAML on PMN after fMLF (PMN; fMLF 100 nM, suspension, 15 minutes at 37° c., FIG. 4A): partial loss of JAML

B1: DW216: monoclonal anti-human JAML antibody (IgG1,κ), non-blocking; VH SEQ ID NO:21, VL SEQ ID NO:24 (antibody, V domains shown)
VH: DVQLVESGPGLVKPSQSLSLTCTVTGYSITSDYAWNWIRQFPGNKLEWMGYISSSGNSNYNPSLKSRISITRDTSKNQFFLQLNSVTTEDTATYYCAGATGYSMDYWGQGTTLTVK
VL: VLTQSPAIMSASLGERVTMTCTASSSVSSSYLHWYQQKPGSSPKLWIYSTSNLASGVPARFSGSGSGTSYSLTISSMEAEDAATYYCHQYHRSPFTFGSGTKLELK
- FACS staining of CHO-JAML transfectant lines [1]: stained both transfectant lines equally well
- inhibition of CAR binding to JAML (JAML binding with CAR): did not inhibit at all; also recorded: whereas DW216 did not
- reversal of PMN or sJAML inhibition of wound closure [2]: but not DW216 mAb (30 μg/ml) significantly improved wound restitution

B2: soluble CAR: purified extracellular domain of CAR that was tagged with GST (protein)
chain: LSITTPEEMIEKAKGETAYLPCKFTLSPEDQGPLDIEWLISPADNQKVDQVIILYSGDKIYDDYYPDLKGRVHFTSNDLKSGDASINVTNLQLSDIGTYQCKVKKAPGVANKKIHLVVLVKPSGARCYVDGSEEIGSDFKIKCEPKEGSLPLQYEWQKLSDSQKMPTSWLAEMTSSVISVKNASSEYSGTYSCTVRNRVGSDQCLLRLNVVPPSNKAG
modifications: left off: a dimerising Fc or GST
- aggregation of mixed CHO-CAR and CHO-JAML cultures (number and size of clusters) [3]: blocked

B3: DW55: monoclonal anti-human JAML antibody (IgG2b,κ); VH SEQ ID NO:20, VL SEQ ID NO:23 (antibody, V domains shown)
VH: CDVQLVESGGGLVQPGGSRKLSCAASGFTFSDYGMAWVRQAPGKGPEWVAFISNLAYSIYYSDTVTGRFTISRENAKNTLYLEMSSLRSEDTAMYYCARGDYSGGMMDYWGQGT
VL: VLTSQPASLAVSLGQRATISYRASKSVSTSGYSYMHWNQQKPGQPPRLLIYLVSNLESGVPARFSGSGSGTDFTLNIHPVEEEDAATYYCQHIRELTRSEGGPSWK
- FACS staining of CHO-JAML transfectant lines [1]: stained both transfectant lines equally well
- inhibition of CAR binding to JAML (JAML binding with CAR): inhibit human JAML binding with CAR; also recorded: partially inhibited binding; also recorded: partly inhibitory
